Literature values as cited in patent publication US11324773B2, “Compounds, compositions and methods for inhibiting a pathogen and/or modifying mucus” (The University of North Carolina at Chapel Hill, priority 2017, dated 2022).

Key:
[1] = test system: HBE mucus; details: 30 μM, 24 h, versus controls
[2] = test system: expectorated sputum; details: patients with CF, 10 d, 2.5 mg twice daily

Row | Molecule | decrease of viscosity and elasticity of HBE mucus [1] | reduction of expectorated sputum elasticity [2] [%] | reduction of expectorated sputum viscosity [2] [%]
1 | CC(=O)N[C@@H](CS)C(=O)O [N-acetylcysteine] | by an order of magnitude |  | 
2 | dornase alfa (protein, UniProt P24855 23-282, looked up, conventional mucolytic therapy used to treat CF) Deoxyribonuclease-1: LKIAAFNIQTFGETKMSNATLVSYIVQILSRYDIALVQEVRDSHLTAVGKLLDNLNQDAPDTYHYVVSEPLGRNSYKERYLFVYRPDQVSAVDSYYYDDGCEPCGNDTFNREPAIVRFFSRFTEVREFAIVPLHAAPGDAVAEIDALYDVYLDVQEKWGLEDVMLMGDFNAGCSYVRPSQWSSIRLWTSPTFQWLIPDSADTTATPTHCAYDRIVVAGMLLRGAVVPDSALPFNFQAAYGLSDQLAQAISDHYPVEVMLK |  | 68 | 59
